Test results as given in patent US20120100134A1, “GENETIC VARIANTS IN ANGIOGENESIS PATHWAY ASSOCIATED WITH CLINICAL OUTCOME” (University of Southern California, priority 2009, published 2012).

Test system: advanced NSCLC patients
Experiment: Toxicity: grade3-4 hypertension versus genotype, E4599 subset
Type: in vivo, human
Conditions: bevacizumab arm
Text: The problem, however, is that there is hardly any power to do this. There were a total of 30 cases on E4599 who reported grade3-4 hypertension of any attribution type on this study. Once these cases are merged with the correlatives dataset, there is an overlap of only 7 hypertension cases in the correlative study. The distribution of hypertension versus genotype for these VEGF polymorphisms, as well as the WNK1 polymorphisms is as follows: […]

Bevacizumab
HTN (number of patients, grade3-4 hypertension) (VEGF634 CC): 1 | No HTN (number of patients) (VEGF634 CC): 10 | HTN (number of patients, grade3-4 hypertension) (VEGF634 GC): 0 | HTN (number of patients, grade3-4 hypertension) (VEGF634 GG): 6 | No HTN (number of patients) (VEGF1498 CC): 18 | HTN (number of patients, grade3-4 hypertension) (VEGF1498 CT): 1 | No HTN (number of patients) (VEGF1498 CT): 21 | No HTN (number of patients) (VEGF1498 TT): 17 | HTN (number of patients, grade3-4 hypertension) (WNK1-2158501 GG (so in the source)): 1 | No HTN (number of patients) (WNK1-2158501 TT (so in the source)): 18 | HTN (number of patients, grade3-4 hypertension) (WNK1-110644560 GG): 0 | No HTN (number of patients) (WNK1-110644560 GG): 7 | HTN (number of patients, grade3-4 hypertension) (WNK1-110644560 GT): 1 | HTN (number of patients, grade3-4 hypertension) (WNK1-110644560 TT): 6 | No HTN (number of patients) (WNK1-110644560 TT): 18
